# In patent US5767250, “Complexes comprising truncated CMV gH polypeptides and escort proteins” (Chiron Corporation, dated 1998):
# B1: EC-FGF receptor, soluble extracellular domain of the human FGF receptor flg5 expressed in a baculovirus system (receptor)
# chain: RPSPTLPEQAQPWGAPVEVESFLVHPGDLLQLRCRLRDDVQSINWLRDGVQLAESNRTRITGEEVEVQDSVPADSGLYACVTSSPSGSDTTYFSVNVSDALPSSEDDDDDDDSSSEEKETDNTKPNPVAPYWTSPEKMEKKLHAVPAAKTVKFKCPSSGTPNPTLRWLKNGKEFKPDHRIGGYKVRYATWSIIMDSVVPSDKGNYTCIVENEYGSINHTYQLDVVERSPHRPILQAGLPANKTVALGSNVEFMCKVYSDPQPHIQWLKHIEVNGSKIGPDNLPYVQILKTAGVNTTDKEMEVLHLRNVSFEDAGEYTCLAGNSIGLSHHSAWLTVLEALEERPAVMTSPLYLE
# Target: basic FGF (human, UniProt P09038, radioiodinated (125I) in the soluble binding assay and the radioreceptor assay)
# Assay: soluble binding assay: EC-FGF receptor on concanavalin A coated wells, 125I-bFGF with increasing bFGF, Scatchard analysis
binder,measurement,value
B1,Kd,< 5 nM
